The results in this text go back to patent US20220143089A1.

For assay [1], the target named is DR5-41BB fusion protein (SEQ ID NO: 4). As to the kind of experiment: cell-based or functional assay.
Assay [2] addresses TRAIL death receptor 5 (DR5) (UniProt O14763). As to the kind of experiment: flow cytometry, mock electroporated Jurkat T cells (endogenous DR5). For orientation: A flow cytometer gives signals particle by particle.
Assay [3] shares this target. As to the kind of experiment: flow cytometry, Jurkat T cells stained with anti-DR5 (FMO control 1.29%).
Assay [4] shares this target. As to the kind of experiment: flow cytometry, mock electroporated primary expanded NK cells (endogenous DR5).
Assay [5] has as its target DR5-41BB fusion protein (SEQ ID NO: 4). As to the kind of experiment: flow cytometry, primary expanded NK cells electroporated with DR5-41BB mRNA; 608 minus 208.
Assay [6] shares this target. As to the kind of experiment: flow cytometry, Jurkat T cells transfected with DR5-41BB; signal is endogenous DR5 plus DR5-41BB.
The target is the same in assay [7]. As to the kind of experiment: flow cytometry, Jurkat T cells transfected with DR5-41BB; DR5-41BB specific signal after mock is set to MFI=0.
The target is the same in assay [8]. As to the kind of experiment: flow cytometry, primary expanded NK cells electroporated with DR5-41BB mRNA; signal is endogenous DR5 plus DR5-41BB.

Chain of DR5-41BB fusion protein (SEQ ID NO: 4) (chain, as listed by the source limits assumed): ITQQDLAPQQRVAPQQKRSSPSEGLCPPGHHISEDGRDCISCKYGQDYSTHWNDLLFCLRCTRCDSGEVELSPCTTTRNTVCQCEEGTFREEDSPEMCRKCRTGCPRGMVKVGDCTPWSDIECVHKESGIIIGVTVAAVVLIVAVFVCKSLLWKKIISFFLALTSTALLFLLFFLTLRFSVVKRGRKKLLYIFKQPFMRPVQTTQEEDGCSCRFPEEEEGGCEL

In assay [1], “soluble TRAIL ligand (from UniProt P50591 114-281)” showed a cell death in T cells (Propidium Iodide, flow cytometry, 16 hours, 100 ng/ml TRAIL) of 15%.
Consider “anti-DR5 antibody (Clone: DJR2-4, Source: Biolegend, Cat: 307406)”, for which the mean MFI in assay [2] amounted to 698 MFI; in assay [4] it was 208 MFI; in assay [6] it was 2070 MFI; in assay [8], 608 MFI. The same substance gave a percent of cells stained in assay [3] of 86.8%. For the same substance, the mean MFI (mock background subtracted) in assay [5] worked out at 400 MFI; in assay [7] it was 1380 MFI.
